According to publication PMC3587840 (Nature, 2010):
Positions count from the first letter of the chain named. Numbers in names are those of the source. Values belong to the binder of their own block, whether it stands above or below them.

What was measured:
SEMA4D_(ecto)(K395D) = target: T1, SEMA4D_(ecto)(K395D) (human, UniProt Q92854 22-677, K395D); assay: SPR
T1 sequence: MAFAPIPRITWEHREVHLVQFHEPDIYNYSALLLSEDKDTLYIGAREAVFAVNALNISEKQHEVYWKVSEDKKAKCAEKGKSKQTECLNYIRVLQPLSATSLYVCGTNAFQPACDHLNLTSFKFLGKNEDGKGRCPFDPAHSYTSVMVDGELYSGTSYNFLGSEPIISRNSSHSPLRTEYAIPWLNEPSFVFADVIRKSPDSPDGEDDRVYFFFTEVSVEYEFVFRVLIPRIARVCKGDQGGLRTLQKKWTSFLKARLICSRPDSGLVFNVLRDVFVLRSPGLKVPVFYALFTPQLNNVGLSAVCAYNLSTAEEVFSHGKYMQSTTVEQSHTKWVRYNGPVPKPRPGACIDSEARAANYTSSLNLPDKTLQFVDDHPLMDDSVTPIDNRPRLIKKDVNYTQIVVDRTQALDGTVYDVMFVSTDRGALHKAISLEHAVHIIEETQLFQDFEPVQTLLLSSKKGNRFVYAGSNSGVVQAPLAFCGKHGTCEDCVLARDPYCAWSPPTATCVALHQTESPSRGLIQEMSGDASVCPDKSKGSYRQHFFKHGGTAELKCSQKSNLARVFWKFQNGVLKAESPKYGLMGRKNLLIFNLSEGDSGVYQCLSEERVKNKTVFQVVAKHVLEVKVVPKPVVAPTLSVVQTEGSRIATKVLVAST

[1] = target: T2, human SEMA4D_(ecto), C-terminal His-tag (human, UniProt Q92854 22-677); assay: crystal structure
T2 sequence: T1 sequence with D374K

[2] = target: T2, human SEMA4D_(ecto), C-terminal His-tag; assay: SPR
[3] = target: T3, SEMA4D_(ecto)(F244N/F246S) (human, UniProt Q92854 22-677, F244N | F246S); assay: SPR
T3 sequence: T1 sequence with F223N, F225S, D374K

[4] = target: T4, mouse PlxnA2_(1–4), C-terminal His-tag (mouse, UniProt P70207 35-703); assay: SPR
T4 sequence: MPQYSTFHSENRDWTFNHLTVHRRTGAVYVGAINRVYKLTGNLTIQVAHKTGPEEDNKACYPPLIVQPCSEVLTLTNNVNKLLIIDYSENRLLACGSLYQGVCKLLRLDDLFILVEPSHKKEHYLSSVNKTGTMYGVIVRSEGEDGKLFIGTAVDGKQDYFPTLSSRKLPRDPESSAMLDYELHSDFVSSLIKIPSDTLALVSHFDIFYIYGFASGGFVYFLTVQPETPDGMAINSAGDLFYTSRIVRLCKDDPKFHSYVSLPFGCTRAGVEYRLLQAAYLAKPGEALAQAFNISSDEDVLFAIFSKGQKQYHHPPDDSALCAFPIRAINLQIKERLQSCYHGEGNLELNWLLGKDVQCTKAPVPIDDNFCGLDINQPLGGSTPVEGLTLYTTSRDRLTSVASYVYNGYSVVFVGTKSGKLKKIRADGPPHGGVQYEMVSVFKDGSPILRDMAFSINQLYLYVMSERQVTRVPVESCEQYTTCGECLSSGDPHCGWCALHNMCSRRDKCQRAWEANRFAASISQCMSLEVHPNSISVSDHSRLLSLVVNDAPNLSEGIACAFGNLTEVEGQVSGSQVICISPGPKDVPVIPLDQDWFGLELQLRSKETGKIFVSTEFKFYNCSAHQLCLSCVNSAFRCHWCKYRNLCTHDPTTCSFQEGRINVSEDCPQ

PlxnA2_(1–4)(D193K) = PlxnA2_(1–4)(D193K) (mouse, UniProt P70207 35-703, D193K); assay: SPR

B1: PLXNB1_(1–2)(D139K) (domain or fragment)
chain: LQPLPPTAFTPNGTYLQHLARDPTSGTLYLGATNFLFQLSPGLQLEATVSTGPVLDSRDCLPPVMPDECPQAQPTNNPNQLLLVSPGALVVCGSVHQGVCEQRRLGQLEQLLLRPERPGKTQYVAANDPAVSTVGLVAQGLAGEPLLFVGRGYTSRGVGGGIPPITTRALWPPDPQAAFSYEETAKLAVGRLSEYSHHFVSAFARGASAYFLFLRRDLQAQSRAFRAYVSRVCLRDQHYYSYVELPLACEGGRYGLIQAAAVATSREVAHGEVLFAAFSSAAPPTVGRPPSAAAGASGASALCAFPLDEVDRLANRTRDACYTREGRAEDGTEVAYIEYDVNSDCAQLPVDTLDAYPCGSDHTPSPMASRVPLEATPILEWPGIQLTAVAVTMEDGHTIAFLGDSQGQLHRVYLGPGSDGHPYSTQSIQQGSAVSRDLTFDGTFEHLYVMTQSTLLKVPVASCAQHLDCASCLAHRDPYCGWCVLLGRCSRRSECSRGQGPEQWLWSFQPELGCLQ
binding result (SEMA4D_(ecto)(K395D)): binds

B2: human PLXNB1_(1–2), C-terminal His-tag (domain or fragment)
chain: B1 chain with K120D
binding result [1]: binds

B3: human PLXNB1_(1–2), biotinylated at an engineered C-terminal tag (domain or fragment)
chain: B1 chain with K120D
modifications: biotin on the engineered C-terminal tag (enzymatic)
binding result [2]: binds
Kd [3]: 5.5 µM

Continued, values first:

Kd [4]: 2.3 µM
B4: mouse Sema6A_(ecto), biotinylated at an engineered C-terminal tag (domain or fragment)
chain: GFPEDSEPISISHGNYTKQYPVFVGHKPGRNTTQRHRLDIQMIMIMNRTLYVAARDHIYTVDIDTSHTEEIYCSKKLTWKSRQADVDTCRMKGKHKDECHNFIKVLLKKNDDTLFVCGTNAFNPSCRNYRVDTLETFGDEFSGMARCPYDAKHANIALFADGKLYSATVTDFLAIDAVIYRSLGDSPTLRTVKHDSKWLKEPYFVQAVDYGDYIYFFFREIAVEYNTMGKVVFPRVAQVCKNDMGGSQRVLEKQWTSFLKARLNCSVPGDSHFYFNILQAVTDVIRINGRDVVLATFSTPYNSIPGSAVCAYDMLDIANVFTGRFKEQKSPDSTWTPVPDERVPKPRPGCCAGSSSLEKYATSNEFPDDTLNFIKTHPLMDEAVPSIINRPWFLRTMVRYRLTKIAVDNAAGPYQNHTVVFLGSEKGIILKFLARIGSSGFLNGSLFLEEMNVYNPEKCSYDGVEDKRIMGMQLDRASGSLYVAFSTCVIKVPLGRCERHGKCKKTCIASRDPYCGWVRESGSCAHLSPLSRLTFEQDIERGNTDGLGDCHNS
modifications: biotin on the engineered C-terminal tag (enzymatic)

fold weaker binding than wild type (PlxnA2_(1–4)(D193K)): > 9 fold
B5: mouse Sema6A_(ecto), C-terminal His-tag (domain or fragment)
chain: B4 chain

binding result [4]: binds
B6: Sema6A_(ecto)(I322E), coupled to the chip (domain or fragment, mouse, UniProt O35464 19-571, looked up)
chain: B4 chain with I304E
modifications: biotin on the engineered C-terminal tag (enzymatic)
